How the values were obtained:
[1] = molecular target: T1, human IL-22 (human, UniProt Q9GZX6 34-179); experiment: affinity ELISA and titration ELISA, CPE library screen
T1 construct: also called hIL-22; hIL22
T1 sequence (looked up): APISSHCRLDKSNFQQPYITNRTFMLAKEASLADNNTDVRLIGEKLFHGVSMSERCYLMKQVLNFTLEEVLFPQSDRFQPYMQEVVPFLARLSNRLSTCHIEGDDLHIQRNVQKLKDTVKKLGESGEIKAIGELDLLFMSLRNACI
Description: (§1) Specifically, the CPE™ variants were screened by affinity ELISA for mouse IL-22 (mIL-22) binding affinity. […] The primary CPE™ hits were re-arrayed, re-transfected, and screened again by affinity ELISA and also by titration ELISA using both mIL-22 and human IL-22 (hIL-22) for antibodies that bind to both mIL-22 and hIL-22.

[2] = molecular target: T2, mouse IL-22 (mouse, UniProt Q9JJY9 34-179); experiment: as above
T2 construct: also called mIL-22; mIL22
T2 sequence (looked up): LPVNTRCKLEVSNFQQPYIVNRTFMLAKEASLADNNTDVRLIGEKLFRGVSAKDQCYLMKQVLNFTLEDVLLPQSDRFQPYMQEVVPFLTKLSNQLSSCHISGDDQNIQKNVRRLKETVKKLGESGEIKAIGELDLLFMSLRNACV
Description: as §1

B1: CPS-01 (antibody, V domains shown)
VH: QVQLVQSGAEVKKPGASVKVSCKASGYIFRSYWIHWIRQPPGKGLEWIGRIYPGTGRTYYNEKFKGRVTISADKSISTAYLQWSSLKASDTAMYYCARSYDSSVAYWGQGTLVTVSS
VL: AIQLTQSPSSLSASVGDRVTITCSASSSVSYMHWYLQKPGQSPQLLIYKTSKLASGVPSRFSGSGSGTDFTFTISSLEAEDAATYYCQQWSSNPYITFGQGTKVEIKR
notes: Mutant of humanized hum10, whole antibody expressed in CHO cells; also called LC-03 / HC-08
[1]
  binding result: binds
[2]
  binding result: binds

B2: CPS-10 (antibody, V domains shown)
VH: QVQLVQSGAEVKKPGASVKVSCKASGYIFRSYWIHWIRQPPGKGLEWIGRIYPGTGRTYYNEKFKGRVTISADKSISTAYLQWSSLKASDTAMYYCARSYDYSVAYWGQGTLVTVSS
VL: AIQLTQSPSSLSASVGDRVTITCSASSSVSYMHWYLQKPGQSPQLLIYETSKLLSGVPSRFSGSGSGTDFTFTISSLEAEDAATYYCQQWSSNPYITFGQGTKVEIKR
notes: Mutant of humanized hum10, whole antibody expressed in CHO cells; also called LC-05 / HC-25
[1]
  binding result: binds
[2]
  binding result: binds

B3: CPS-11 (antibody, V domains shown)
VH: QVQLVQSGAEVKKPGASVKVSCKASGYIFRSYWIHWIRQPPGKGLEWIGRIYPGTGRTYYNEKFKGRVTISADKSISTAYLQWSSLKASDTAMYYCARSYDYSVAYWGQGTLVTVSS
VL: AIQLTQSPSSLSASVGDRVTITCSASSSVSYMHWYLQKPGQSPQLLIYKTRKLASGVPSRFSGSGSGTDFTFTISSLEAEDAATYYCQQWSSNPYITFGQGTKVEIKR
notes: Mutant of humanized hum10, whole antibody expressed in CHO cells; also called LC-06 / HC-25
[1]
  binding result: binds
[2]
  binding result: binds

B4: CPS-16 (antibody, V domains shown)
VH: QVQLVQSGAEVKKPGASVKVSCKASGYIFRSYWIHWIRQPPGKGLEWIGRIYPGTGNTYYNRKFKGRVTISADKSISTAYLQWSSLKASDTAMYYCARSYMYSVAYWGQGTLVTVSS
VL: AIQLTQSPSSLSASVGDRVTITCSASSSVSYMHWYLQKPGQSPQLLIYKTSKLASGVPSRFSGSGSGTDFTFTISSLEAEDAATYYCQQWSSNPYITFGQGTKVEIKR
notes: Mutant of humanized hum10, whole antibody expressed in CHO cells; also called LC-03 / HC-49
[1]
  binding result: binds
[2]
  binding result: binds

B5: CPS-20 (antibody, V domains shown)
VH: QVQLVQSGAEVKKPGASVKVSCKASGYIFRSYWIHWIRQPPGKGLEWIGRIYPGTGNTYYNRKFKGRVTISADKSISTAYLQWSSLKASDTAMYYCARSYMSSVGYWGQGTLVTVSS
VL: AIQLTQSPSSLSASVGDRVTITCSASSSVSKMHWYLQKPGQSPQLLIYETRKLASGVPSRFSGSGSGTDFTFTISSLEAEDAATYYCQQWSSNPYITFGQGTKVEIKR
notes: Mutant of humanized hum10, whole antibody expressed in CHO cells; also called LC-11 / HC-50
[1]
  binding result: binds
[2]
  binding result: binds

Reference: US20210230263A1 (BIOATLA, published 2021)
